Changes are numbered by the printed parent chain.

As a reminder, the Kd is the equilibrium constant for the complex coming apart.

The chains are these.
T1: Monomeric hAng-2FD (human, UniProt O15123 282-496)
T1 construct: also called fibrinogen-like domain of human Ang2; Human Ang-2FD
T1 sequence: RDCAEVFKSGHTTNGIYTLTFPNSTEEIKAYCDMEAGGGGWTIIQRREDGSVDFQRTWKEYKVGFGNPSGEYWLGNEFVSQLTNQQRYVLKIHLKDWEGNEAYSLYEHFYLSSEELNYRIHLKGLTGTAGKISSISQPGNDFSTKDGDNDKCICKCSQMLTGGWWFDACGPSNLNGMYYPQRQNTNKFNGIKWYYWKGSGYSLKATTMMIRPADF

T2: wild-type human Ang-2 (hAng-2-WT) (human, UniProt O15123 19-496)
T2 construct: called full-length wild-type; also called Full-length wild-type human Ang-2
T2 sequence: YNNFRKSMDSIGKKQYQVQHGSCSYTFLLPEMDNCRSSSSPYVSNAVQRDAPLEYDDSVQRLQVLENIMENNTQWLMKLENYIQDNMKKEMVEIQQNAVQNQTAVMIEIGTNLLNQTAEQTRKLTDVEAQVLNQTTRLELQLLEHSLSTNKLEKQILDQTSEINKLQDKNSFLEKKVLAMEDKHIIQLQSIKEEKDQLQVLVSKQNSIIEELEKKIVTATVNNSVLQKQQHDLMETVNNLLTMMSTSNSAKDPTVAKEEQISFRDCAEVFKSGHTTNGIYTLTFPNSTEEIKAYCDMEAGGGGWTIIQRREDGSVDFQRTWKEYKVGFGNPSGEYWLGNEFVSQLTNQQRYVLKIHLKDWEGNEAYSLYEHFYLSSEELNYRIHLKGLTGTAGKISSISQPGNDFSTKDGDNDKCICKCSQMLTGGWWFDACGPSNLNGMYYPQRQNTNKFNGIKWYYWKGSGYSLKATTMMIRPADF

B1: H1H706P (antibody, V domains shown)
VH: QVQLVESGGGVVQPGRSLRLSCAASGFTFSSYGMHWVRQAPDKGLEWVAVKWDDGSNKYYADSVKGRFTISRDNSKNTLYLQMNSLRAEDTAVYYCAREGPYDFYSGYGAFDIWGQGTMVTVSS
VL: DIQMTQSPSSLSASVGDRVTITCRASQGISNYLAWFQQKPGKAPKSLIYAASSLQSGVPSKFSGSGSGTDFTLTISSLQPEDFATYYCQQYNSYPRTFGQGTKVEIK
B2: H1H728N (antibody, V domains shown)
VH: EVQLVESGGDLVQPGGSLRLSCTASGFTFSKYWMTWVRQAPGRGLEWVANIKEDGNEKYFLDSVKGRFTISRDNAKDLLFLQMNSLRGEDTAVYYCVRDRGIEVAGPFDYWGQGTLVTVSS
VL: DIQMTQSPSTLSASVGDRVTVTCRASQTIINWLAWYQQKPGKAPKLLISKASSLESGVPSRFSGSGSGTEFTLTISSLQPDDFATYYCQQYNRYWTFGQGTMVEIK
B3: H1H730N (antibody, V domains shown)
VH: EVQLVESGGGLVQPGGSLRLSCAASGFAFRSYWMTWVRQAPGKGLEWVANIQQDGNDKYYVDSVKGRFTISRDNAKNSLYLQMNSLRAEDTAVYYCARDTGIAEAGPFDYWGQGTLVTVSS
VL: B2 VL with T20S, V21I, N31S, K45R, S49Y, S76N, M102K
B4: H1H743N (antibody, V domains shown)
VH: EVQLLESGGGLVQPGGSLRLSCAASGFTFRKYAMSWVRQAPGKGLEWVSVISVSGGNTYYADSVKGRFTISRDNSKNTLYLQLNSLRAEDTAVYYCAKDLTDIVLMVYVDYWGQGTLVTVSS
VL: DIQMTQSPSSVSASVGDRVTITCRASQDIDRWLAWYQQKPGKAPKLLIYAASSLQSGVPSRFSGSGSGTDFTLTISTLQPEDFATYYCQQANSLPFTFGGGTKVEIK
B5: H1H724N (antibody, V domains shown)
VH: QVQLVESGGGVVQPGRSLRLSCAASGFTLSNYGMHWVRQAPGKGLEWVAVIWHDGSNTYYADSVKGRFTISRDNSKNTLYLQMNSLRAEDTAVYYCTREGLDFWSGYYPNWFDPWGQGTLVTVSS
VL: DIQMTQSPSSLSASVGDRVTITCRASQGIRNDLGWYQQKPGKAPKRLIYAASNLQGGVPSRFSGSGSGTEFTLTISSLQPEDFAAYYCLQHNIYPLTFGGGTKVEIK
B6: H1H732N (antibody, V domains shown)
VH: EVQLVESGGGLVRPGGSLRLSCAASGFTFTNAWMSWVRQAPGKGLEWIGQIKSKTDGGTIDYAAPVKGRFTVSRDDSENTLFLQMNSLKTEDTAVYYCAGNWNYVDFDYWGQGTLVTVSS
VL: B5 VL with G28D, N53S, A85T, I93S, L96F, G100P, E105D
B7: H1H704P (antibody, V domains shown)
VH: QVQLVESGGDVVQPGRSLRLSCAASGFTFSSYGMHWVRQAPGKGLEWVAIIWYDGSNKYYADSVKGRFTISRDNSKNTLYLQMNSLRVEDTAVYSCARDFSISSRHFDYWGQGTLVTVSS
VL: DIQMTQSPSSLSASVGDRVTITCRASQAINNYLAWFQQKPGKAPKSLIYATSNLQSGVPSQFSGSGSGTDYTLTISSLQPEDFATYYCQQYYIYPITFGQGTRLEIK
B8: H1H742N (antibody, V domains shown)
VH: DVQLLESGGDLVQPGGSLRLSCEASGFTFRNYVMIWVRQAPGKGLEWVSGISNSGGTTHYTDSVKGRFTISRDNSKNTLYLQINSLRAEDTAVYYCAKGYLDTSLIEGNWFDPWGQGTLVTVSS
VL: NIVMTQSPLSLPVTPGEPASISCRSSQSLLHSNGFNYLNWFLQKPGQSPQLLIYLGSNRASGVPDKFSGSGSGTDFTLNINRVEAEDVGIYFCMQTLQTPLTFGGGTKVEIK
B9: H1H707P (antibody, V domains shown)
VH: B1 VH
VL: not shown
B10: H1H691P (antibody, V domains shown)
VH: EVQLVESGGGLVQPGRSLRLSCAASGFTFDDYAMHWVRQAPGKGLEWVSGISWNSGDIGYADSVKGRFTISRDNAKNSLYLQMNSLRAQDTALYYCAKAYGDYYYFYGMDVWGQGTTVTVS
VL: EIVLTQSPGTLSLSPGERATLSCRASQSVSSSYLAWYQQKPGQAPRLLIFSASSRATGIPDRFSGSGSGTDFTLTISRLEPEDFAVYYCQQYDNSLTFGGGTKVEIK

T4 sequence (chain, as listed by the source limits assumed): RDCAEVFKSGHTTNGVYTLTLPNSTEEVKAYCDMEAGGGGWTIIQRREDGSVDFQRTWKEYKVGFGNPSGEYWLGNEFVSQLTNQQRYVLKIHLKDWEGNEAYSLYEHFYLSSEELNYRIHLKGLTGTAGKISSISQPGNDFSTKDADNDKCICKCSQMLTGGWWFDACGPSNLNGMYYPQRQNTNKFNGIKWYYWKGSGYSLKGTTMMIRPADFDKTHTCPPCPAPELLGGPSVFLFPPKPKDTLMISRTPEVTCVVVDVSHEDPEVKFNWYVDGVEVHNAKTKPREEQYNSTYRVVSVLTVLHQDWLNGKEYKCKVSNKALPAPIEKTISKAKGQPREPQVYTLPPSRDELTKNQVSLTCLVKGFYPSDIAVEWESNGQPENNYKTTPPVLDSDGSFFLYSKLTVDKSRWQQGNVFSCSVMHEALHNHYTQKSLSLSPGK
T3 sequence (chain, as listed by the source limits assumed): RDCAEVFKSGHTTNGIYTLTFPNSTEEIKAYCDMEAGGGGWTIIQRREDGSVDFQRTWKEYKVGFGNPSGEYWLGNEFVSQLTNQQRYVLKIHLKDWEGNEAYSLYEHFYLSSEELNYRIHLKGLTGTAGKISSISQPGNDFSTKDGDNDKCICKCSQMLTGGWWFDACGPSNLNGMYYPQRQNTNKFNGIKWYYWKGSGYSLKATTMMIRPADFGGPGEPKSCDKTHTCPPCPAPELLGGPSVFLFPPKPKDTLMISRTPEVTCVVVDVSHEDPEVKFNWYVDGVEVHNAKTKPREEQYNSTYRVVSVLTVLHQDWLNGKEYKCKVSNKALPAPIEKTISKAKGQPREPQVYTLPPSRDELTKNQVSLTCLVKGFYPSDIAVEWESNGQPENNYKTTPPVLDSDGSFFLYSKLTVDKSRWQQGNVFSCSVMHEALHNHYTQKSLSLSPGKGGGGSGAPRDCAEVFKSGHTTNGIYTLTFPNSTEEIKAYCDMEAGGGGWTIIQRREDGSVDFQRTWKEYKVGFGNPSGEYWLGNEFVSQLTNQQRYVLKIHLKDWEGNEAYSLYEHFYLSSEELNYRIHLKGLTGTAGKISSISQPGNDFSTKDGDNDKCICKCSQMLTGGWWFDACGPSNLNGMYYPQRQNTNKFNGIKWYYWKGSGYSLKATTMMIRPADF
T5 sequence (chain, as listed by the source limits assumed): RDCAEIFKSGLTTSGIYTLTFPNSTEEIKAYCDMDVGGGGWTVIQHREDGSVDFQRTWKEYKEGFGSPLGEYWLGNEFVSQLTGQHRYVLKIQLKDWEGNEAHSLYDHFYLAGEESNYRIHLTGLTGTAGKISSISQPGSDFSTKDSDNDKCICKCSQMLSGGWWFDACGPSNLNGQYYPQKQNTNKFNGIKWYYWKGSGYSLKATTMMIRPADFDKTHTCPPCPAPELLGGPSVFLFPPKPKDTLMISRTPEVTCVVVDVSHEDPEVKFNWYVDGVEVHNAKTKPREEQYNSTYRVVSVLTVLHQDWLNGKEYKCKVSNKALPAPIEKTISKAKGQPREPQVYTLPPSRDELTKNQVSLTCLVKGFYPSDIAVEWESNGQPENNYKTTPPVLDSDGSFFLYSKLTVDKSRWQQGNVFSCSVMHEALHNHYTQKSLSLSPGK

One assay has as its target T3, human bow-Ang-2 tetrameric construct (hBA2) (human).
T3 construct: also called human BA2; hBA2-hIgG1
Briefly: SPR, captured Ab. A general note: SPR reads the build-up and loss of mass on a sensor chip optically.
With B1, the Kd stood at 0.0791 nM and the T1/2 stood at 1.06 h.
The corresponding values for B2 are 0.0418 nM and 3.08 h.
B3 returned a Kd of 0.0559 nM and a T1/2 of 2.53 h.
As to B4, binding was characterised by a dissociation constant (Kd) of 0.00971 nM and the T1/2 was determined as 18.6 h.
Taken in the same sequence, the figures for B5 were 0.0233 nM and 5.38 h.
Taken in the same sequence, the figures for B6 were 0.132 nM and 1.22 h.
Consider B7, for which the affinity, expressed as Kd, was 0.0939 nM and the T1/2 stood at 1.96 h.
Taken in the same sequence, the figures for B8 were 0.0721 nM and 1.45 h.

Another assay concerns the target T4, Dimeric Monkey Ang-2FD conjugated to human IgG1 (monkey (Macca fascicularis); human).
T4 construct: also called Monkey Ang-2FD-hFc
Description: SPR, captured Ab, RT. On the procedure: (§1) Antibody was captured on a goat anti-mouse IgG polyclonal antibody surface, a goat anti-human κ polyclonal antibody (Southern Biotech, Birmingham, Ala.) surface or a goat anti-human IgG polyclonal antibody (Jackson Immuno Research Lab, West Grove, Pa.) surface created through direct amine coupling to a BIACORE™ CM5 sensor chip to form a captured antibody surface. […] Antigen-antibody binding and dissociation were monitored in real time at room temperature. Kinetic analysis was performed to calculate KD and half-life of antigen/antibody complex dissociation.
B1 registered a Kd of 0.164 nM and a T1/2 of 0.888 h.
The corresponding values for B9 are 0.283 nM and 0.372 h.
For the molecule B2, the Kd is 2 nM and the T1/2 is 1.28 h.
The molecule B3 displayed a Kd of 3.4 nM and a T1/2 of 1.45 h.
B4 came in with a Kd of 0.0965 nM and a T1/2 of 13 h.
Taken in the same sequence, the figures for B5 were 0.239 nM and 2.88 h.
B6 showed a Kd of 0.439 nM and a T1/2 of 1.97 h.
The corresponding values for B7 are 0.818 nM and 0.558 h.
Molecule B10 gave a Kd of 0.29 nM and a T1/2 of 0.683 h.
The corresponding values for B8 are 0.683 nM and 1.55 h.

Another assay addresses T5, Dimeric Mouse Ang-2FD conjugated to human IgG1 (mouse (Mus musculus); human).
T5 construct: also called Mouse Ang-2FD-hFc
Description: SPR, captured Ab, RT. On the procedure: as §1
As for B1, binding was put at a Kd of 0.357 nM and the T1/2 is 0.783 h.
For the molecule B9, the Kd was determined as 0.328 nM and the T1/2 is 0.573 h.
Taken in the same sequence, the figures for B2 were 5.76 nM and 0.333 h.
Taken in the same sequence, the figures for B3 were 0.0971 nM and 1.5 h.
The corresponding values for B4 are 0.124 nM and 3.88 h.
Regarding B5, binding was put at a Kd of 0.185 nM and the T1/2 was 1.4 h.
The corresponding values for B6 are 0.529 nM and 0.85 h.
B7 returned a Kd of 0.484 nM and a T1/2 of 1.03 h.
Taken in the same sequence, the figures for B10 were 0.22 nM and 0.73 h.
The corresponding values for B8 are 0.276 nM and 0.967 h.

The target in the next assay is T6, Dimeric Human Ang-2FD conjugated to human IgG1 (human).
T6 construct: also called Human Ang-2FD-hFc; hAng-2FD-hFc
Briefly: SPR, captured Ab, RT. On the procedure: as §1
As to B1, binding was put at a Kd of 0.201 nM and the T1/2 was 0.84 h.
Taken in the same sequence, the figures for B9 were 0.262 nM and 0.443 h.
The corresponding values for B2 are 0.162 nM and 1.35 h.
Taken in the same sequence, the figures for B3 were 0.234 nM and 1.03 h.
B4: the Kd is 0.0882 nM and the T1/2 was 4.23 h.
For the molecule B5, binding was characterised by a dissociation constant (Kd) of 0.115 nM and the T1/2 was determined as 1.78 h.
B6 registered a Kd of 0.386 nM and a T1/2 of 0.95 h.
Taken in the same sequence, the figures for B7 were 0.331 nM and 1.43 h.
Taken in the same sequence, the figures for B10 were 0.22 nM and 0.642 h.
Taken in the same sequence, the figures for B8 were 0.186 nM and 1.08 h.

Another assay deals with T1, Monomeric hAng-2FD. Briefly: SPR, captured Ab.
B1 displayed a T1/2 of 0.017 h.
Regarding B2, the Kd came to 1.18 nM and the T1/2 was 0.0977 h.
Regarding B3, the dissociation constant (Kd) was 2.84 nM and the T1/2 worked out at 0.0573 h.
As for B4, the Kd came to 2.35 nM and the T1/2 stood at 0.55 h.
The corresponding values for B5 are 2.4 nM and 0.222 h.
The corresponding values for B6 are 264 nM and 0.00367 h.
The corresponding values for B7 are 0.39 nM and 0.0552 h.
B8 gave a Kd of 486 nM and a T1/2 of 0.0382 h.

The next assay concerns the target T2, wild-type human Ang-2 (hAng-2-WT). Description: SPR, captured Ab.
Molecule B1 gave a Kd of 0.0274 nM and a T1/2 of 11 h.
Taken in the same sequence, the figures for B2 were 0.043 nM and 9.43 h.
The corresponding values for B3 are 0.0475 nM and 8.9 h.
The corresponding values for B4 are 0.00948 nM and 65.5 h.
In turn, B5 yielded a Kd of 0.0226 nM and a T1/2 of 14.9 h.
The corresponding values for B6 are 0.202 nM and 4.4 h.
The corresponding values for B7 are 0.0362 nM and 12.5 h.
Taken in the same sequence, the figures for B8 were 0.0449 nM and 11.1 h.

The values above are taken from patent publication US20140112930A1 (published 2014).
